Here are results for two molecules from article PMC12964555, “Fecal Detection of Calprotectin Subunits Links Inflammatory Bowel Disease Activity With Chronicity of Intestinal Inflammation” (Gastroenterology, 2025).

Holding throughout (assay): SEC; human recombinant S100A8, S100A9 or their 1:1 mix (CP) run as reference proteins; sizes read from the elution
On the technique in general: Size exclusion chromatography separates by hydrodynamic size, large species first.

Data set [1] deals with the molecule itself.
The target of another data set is T1, human recombinant S100A9 (human, UniProt P06702 1-114).
T1 construct: S100A9, human, recombinant; Alone it runs as a homodimer by SEC; In the 1:1 mix with S100A8 it forms the calprotectin heterotetramer; also called S100A9 homodimers; source: human recombinant, generated by the authors, purity confirmed
T1 sequence (looked up): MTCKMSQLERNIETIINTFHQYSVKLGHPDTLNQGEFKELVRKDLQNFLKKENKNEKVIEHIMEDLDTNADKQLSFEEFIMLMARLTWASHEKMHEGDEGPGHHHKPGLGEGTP
The note with it: both partners purified.

Data set [2] deals with T2, human recombinant S100A9 (human), P06702.
T2 chain: T1 sequence (looked up)

B1: human recombinant S100A8 (natural protein, UniProt P05109 1-93, looked up)
chain: MLTELEKALNSIIDVYHKYSLIKGNFHAVYRDDLKKLLETECPQYIRKKGADVWFKELDINTDGAVNFQEFLILVIKMGVAAHKKSHEESHKE
notes: S100A8, human, recombinant; Alone it runs as a homodimer by SEC; In the 1:1 mix with S100A9 it forms the calprotectin heterotetramer; also called S100A8 homodimers; S100A8/S100A8 homodimers; source: human recombinant, generated by the authors, purity confirmed
As a reminder, the stoichiometry N is a count of units in the complex or per binding partner. For B1, in data set [1], the “stoichiometry N” value is 2. The binding result with human recombinant S100A9 is listed as “binds”.

B2: human recombinant S100A9, P06702 1-114 (natural protein)
chain: T1 sequence (looked up)
As for B2, in data set [2], the stoichiometry N was 2.
